B1: His-tagged wild-type human BAF, recombinant (natural protein, UniProt O75531 1-89, looked up)
chain: MTTSQKHRDFVAEPMGEKPVGSLAGIGEVLGKKLEERGFDKAYVVLGQFLVLKKDEDLFREWLKDTCGANAKQSRDCFGCLREWCDAFL
B2: His-tagged human BAF mutant 41E, recombinant (natural protein, UniProt O75531 1-89, looked up)
chain: MTTSQKHRDFVAEPMGEKPVGSLAGIGEVLGKKLEERGFDEAYVVLGQFLVLKKDEDLFREWLKDTCGANAKQSRDCFGCLREWCDAFL
B3: His-tagged human BAF mutant 14A, recombinant (natural protein, UniProt O75531 1-89, looked up)
chain: MTTSQKHRDFVAEAMGEKPVGSLAGIGEVLGKKLEERGFDKAYVVLGQFLVLKKDEDLFREWLKDTCGANAKQSRDCFGCLREWCDAFL
B4: His-tagged human BAF mutant 47E, recombinant (natural protein, UniProt O75531 1-89, looked up)
chain: MTTSQKHRDFVAEPMGEKPVGSLAGIGEVLGKKLEERGFDKAYVVLEQFLVLKKDEDLFREWLKDTCGANAKQSRDCFGCLREWCDAFL
B5: His-tagged human BAF mutant 53E, recombinant (natural protein, UniProt O75531 1-89, looked up)
chain: MTTSQKHRDFVAEPMGEKPVGSLAGIGEVLGKKLEERGFDKAYVVLGQFLVLEKDEDLFREWLKDTCGANAKQSRDCFGCLREWCDAFL

Target: the molecule itself
Experiment: SEC

Stoichiometry N, 2:
B1
B2
B3
B4
B5

Source: PMC2173821 (The Journal of Cell Biology, 2002)
